± gives the uncertainty stated by the source.
B1: Homeobox protein cut-like 2, residues 895 to 963; numbered along this chain, O14529 (parent)
chain: EVDTLELTRQVKEKLAKNGICQRIFGEKVLGLSQGSVSDMLSRPKPWSKLTQKGREPFIRMQLWLSDQL

Variants of: B1
Assay: abundance fitness (aPCA) (normalised: wild type 0, dead -1); higher = more abundant; growth selection in yeast, the domain comes from the species named
Settings: Homo sapiens
P57R gave an abundance fitness of -0.081 ± 0.055.
With Q62A the abundance fitness was -0.098 ± 0.035.
Variant F25S has an abundance fitness of -0.721 ± 0.061.
D39P gave an abundance fitness of -0.184 ± 0.068.
In the case of Q10A, the abundance fitness is reported as -0.23 ± 0.092.
Work on Q10D yielded an abundance fitness of 0.005 ± 0.11.
K49P showed an abundance fitness of -0.731 ± 0.033.
For L65E, the abundance fitness was -1.28 ± 0.24.
Work on V11W yielded an abundance fitness of -0.313 ± 0.034.
For S33L, the abundance fitness was -0.057 ± 0.03.
M40C gave an abundance fitness of -0.045 ± 0.082.
For S48R, the abundance fitness was -0.13 ± 0.05.
V29Q showed an abundance fitness of -0.381 ± 0.039.
For L15D, the abundance fitness was -0.211 ± 0.048.
G19I gave an abundance fitness of -0.434 ± 0.057.
Work on T51A yielded an abundance fitness of -0.1 ± 0.039.
For V2G, the abundance fitness was -0.001 ± 0.05.
In the case of Q68W, the abundance fitness is reported as -0.087 ± 0.037.
V2H showed an abundance fitness of -0.201 ± 0.068.
G26V gave an abundance fitness of -0.263 ± 0.037.
In the case of P57Y, the abundance fitness is reported as 0.027 ± 0.052.
Work on S38P yielded an abundance fitness of -0.209 ± 0.026.
In the case of M61W, the abundance fitness is reported as -0.379 ± 0.038.
With L65S the abundance fitness was -0.962 ± 0.049.
R43N showed an abundance fitness of -0.03 ± 0.078.
Variant R43C has an abundance fitness of -0.14 ± 0.072.
In the case of G54W, the abundance fitness is reported as -0.097 ± 0.043.
K28A showed an abundance fitness of -0.19 ± 0.04.
In the case of K45Y, the abundance fitness is reported as -0.265 ± 0.066.
Variant G31S has an abundance fitness of -0.134 ± 0.032.
F25K showed an abundance fitness of -0.62 ± 0.054.
With S38N the abundance fitness was 0.012 ± 0.027.
For C21K, the abundance fitness was -0.034 ± 0.039.
R9V gave an abundance fitness of -0.15 ± 0.027.
Variant S38D has an abundance fitness of 0.007 ± 0.048.
Variant W47V has an abundance fitness of -0.808 ± 0.044.
In the case of E27N, the abundance fitness is reported as -0.108 ± 0.052.
With P44W the abundance fitness was -0.103 ± 0.058.
In the case of R43A, the abundance fitness is reported as -0.034 ± 0.029.
L41M showed an abundance fitness of -0.214 ± 0.032.
Variant W47C has an abundance fitness of -1.01 ± 0.15.
For E1M, the abundance fitness was 0.034 ± 0.046.
In the case of K17Y, the abundance fitness is reported as -0.276 ± 0.076.
Work on Q62Y yielded an abundance fitness of -0.278 ± 0.17.
In the case of S66N, the abundance fitness is reported as 0.189 ± 0.076.
L30N gave an abundance fitness of -0.425 ± 0.063.
E27M showed an abundance fitness of -0.14 ± 0.027.
K14N showed an abundance fitness of -0.249 ± 0.081.
Work on A16C yielded an abundance fitness of -0.106 ± 0.077.
Variant M61L has an abundance fitness of -0.191 ± 0.031.
Q34L gave an abundance fitness of -0.003 ± 0.028.
Work on P46W yielded an abundance fitness of 0.044 ± 0.085.
Q68N showed an abundance fitness of -0.068 ± 0.05.
In the case of Q62W, the abundance fitness is reported as 0.005 ± 0.046.
Work on K49T yielded an abundance fitness of -0.035 ± 0.033.
For P46Y, the abundance fitness was -0.078 ± 0.035.
In the case of Q52R, the abundance fitness is reported as 0.015 ± 0.032.
With P46Q the abundance fitness was -0.053 ± 0.082.
Work on Q34N yielded an abundance fitness of 0.046 ± 0.038.
T8R showed an abundance fitness of -0.136 ± 0.029.
G26C showed an abundance fitness of -0.02 ± 0.032.
Work on N18T yielded an abundance fitness of 0.022 ± 0.035.
For W64L, the abundance fitness was -0.822 ± 0.047.
With Q68F the abundance fitness was -0.099 ± 0.036.
Work on V29K yielded an abundance fitness of -0.129 ± 0.037.
R55Y showed an abundance fitness of -0.76 ± 0.087.
G19W showed an abundance fitness of -0.341 ± 0.06.
With T51H the abundance fitness was -0.235 ± 0.048.
In the case of E13W, the abundance fitness is reported as -0.357 ± 0.047.
Work on W64C yielded an abundance fitness of -0.946 ± 0.17.
S36F showed an abundance fitness of -0.093 ± 0.041.
Q22S gave an abundance fitness of -0.089 ± 0.032.
Variant E13T has an abundance fitness of -0.144 ± 0.05.
Work on L65N yielded an abundance fitness of -0.973 ± 0.082.
P57M showed an abundance fitness of 0.073 ± 0.043.
In the case of G54M, the abundance fitness is reported as 0.004 ± 0.039.
E56M gave an abundance fitness of -0.213 ± 0.059.
R60F gave an abundance fitness of -1.08 ± 0.14.
Variant W47F has an abundance fitness of -0.338 ± 0.041.
Q22R gave an abundance fitness of -0.062 ± 0.044.
Q34H gave an abundance fitness of 0.027 ± 0.038.
L63F gave an abundance fitness of -0.274 ± 0.046.
Work on L5C yielded an abundance fitness of -0.03 ± 0.052.
Work on V11K yielded an abundance fitness of -0.081 ± 0.035.
Work on D3S yielded an abundance fitness of -0.084 ± 0.062.
For W64S, the abundance fitness was -1.3 ± 0.097.
G31Y gave an abundance fitness of -0.449 ± 0.062.
R55P gave an abundance fitness of -0.814 ± 0.07.
For L65T, the abundance fitness was -0.975 ± 0.058.
Variant Q62P has an abundance fitness of -0.84 ± 0.041.
Variant L30G has an abundance fitness of -0.387 ± 0.032.
Variant K17V has an abundance fitness of -0.169 ± 0.027.
W64K showed an abundance fitness of -0.899 ± 0.07.
With G35W the abundance fitness was -0.106 ± 0.031.
In the case of P44D, the abundance fitness is reported as -0.429 ± 0.099.
D67V gave an abundance fitness of -0.549 ± 0.088.
In the case of D67G, the abundance fitness is reported as 0.009 ± 0.14.
With V2P the abundance fitness was -0.244 ± 0.056.
For P44M, the abundance fitness was -0.196 ± 0.05.
For Q10M, the abundance fitness was 0.082 ± 0.033.
With V2L the abundance fitness was 0.03 ± 0.027.
Variant L30W has an abundance fitness of -0.21 ± 0.033.
In the case of S48Q, the abundance fitness is reported as -0.085 ± 0.038.
In the case of L7E, the abundance fitness is reported as 0.016 ± 0.051.
In the case of S66C, the abundance fitness is reported as -0.048 ± 0.15.
In the case of K28W, the abundance fitness is reported as -0.263 ± 0.037.
W64R showed an abundance fitness of -0.945 ± 0.063.
In the case of M40F, the abundance fitness is reported as -0.189 ± 0.083.
In the case of R9P, the abundance fitness is reported as -0.137 ± 0.047.
R23E showed an abundance fitness of 0.068 ± 0.047.
With R23D the abundance fitness was -0.042 ± 0.15.
With P44S the abundance fitness was -0.171 ± 0.036.
S33N showed an abundance fitness of -0.003 ± 0.069.
L7M gave an abundance fitness of 0.055 ± 0.037.
Variant Q22P has an abundance fitness of -0.073 ± 0.06.
Q68V gave an abundance fitness of -0.072 ± 0.029.
Work on L32P yielded an abundance fitness of -0.286 ± 0.057.
With P57K the abundance fitness was -0.058 ± 0.066.
For T8A, the abundance fitness was -0.064 ± 0.045.
T51D gave an abundance fitness of 0.117 ± 0.062.
With R60L the abundance fitness was -0.215 ± 0.027.
Variant T51V has an abundance fitness of -0.115 ± 0.048.
Variant K53Y has an abundance fitness of -0.061 ± 0.14.
In the case of G35Q, the abundance fitness is reported as 0.088 ± 0.03.
For E13Y, the abundance fitness was -0.08 ± 0.062.
Variant S42M has an abundance fitness of 0.012 ± 0.037.
For D67W, the abundance fitness was -0.661 ± 0.1.
With Q22I the abundance fitness was -0.223 ± 0.1.
F25C showed an abundance fitness of -0.707 ± 0.067.
I24E gave an abundance fitness of 0.278 ± 0.046.
With K28S the abundance fitness was -0.116 ± 0.028.
E6Q showed an abundance fitness of -0.258 ± 0.12.
With S48K the abundance fitness was -0.088 ± 0.042.
L41N gave an abundance fitness of -0.481 ± 0.067.
Variant L41E has an abundance fitness of -0.41 ± 0.11.
For G19R, the abundance fitness was 0.032 ± 0.065.
Variant K14H has an abundance fitness of -0.009 ± 0.062.
With S36E the abundance fitness was 0.152 ± 0.054.
Work on N18F yielded an abundance fitness of -0.065 ± 0.045.
Variant K12W has an abundance fitness of -0.547 ± 0.031.
Work on L7V yielded an abundance fitness of -0.023 ± 0.032.
With I59W the abundance fitness was -0.299 ± 0.072.
L63G gave an abundance fitness of -0.19 ± 0.2.
G31V gave an abundance fitness of -0.514 ± 0.052.
In the case of S33K, the abundance fitness is reported as 0.023 ± 0.067.
Work on W47R yielded an abundance fitness of -0.793 ± 0.077.
S38Y showed an abundance fitness of -0.008 ± 0.32.
In the case of D3C, the abundance fitness is reported as -0.279 ± 0.047.
F58Q gave an abundance fitness of -1.01 ± 0.1.
Q62T gave an abundance fitness of -0.308 ± 0.038.
Q62F gave an abundance fitness of -0.69 ± 0.14.
Work on G54A yielded an abundance fitness of 0.084 ± 0.046.
For R9T, the abundance fitness was -0.135 ± 0.047.
Work on M61D yielded an abundance fitness of -0.702 ± 0.3.
Work on I20C yielded an abundance fitness of -0.269 ± 0.065.
In the case of N18R, the abundance fitness is reported as 0.013 ± 0.035.
R60N gave an abundance fitness of -0.413 ± 0.093.
Variant W47E has an abundance fitness of -1.08 ± 0.14.
G19H gave an abundance fitness of -0.374 ± 0.33.
Work on P57W yielded an abundance fitness of -0.102 ± 0.088.
Variant Q34E has an abundance fitness of -0.254 ± 0.22.
Work on C21H yielded an abundance fitness of -0.029 ± 0.081.
T51I gave an abundance fitness of -0.007 ± 0.053.
G26Y showed an abundance fitness of -0.169 ± 0.042.
For K49S, the abundance fitness was -0.079 ± 0.03.
Variant Q52H has an abundance fitness of -0.218 ± 0.079.
For G31D, the abundance fitness was -0.132 ± 0.072.
